# Experimental data: US20260258115A1 (MAPP BIOPHARMACEUTICAL, published 2026)
# Residue numbers refer to the chain shown, from its start.
# B1: ADI-20986 (antibody, V domains shown)
# VH: EVQLVESGGGLVQPGGSLRLSCVASGFTFSNYWMNWVRQAPGKGLEWVANIKEDGSEIKYVDSVKGRFTISRDNAKNSLYLQMNSLRAEDTAVYYCARTEDSSSWFVAIDYYNYMDVWGKGTTVTVSS
# VL: DIQVTQSPGTLSLSPGERATLSCRASQTVSSSYLAWYQQKPGQAPRLLFYGASSRATDIPDRFSASGSGTDFTLTIHRLEPEDFAVYYCQLYGRSPPYTFGQGTKVEIK
# B2: ADI-20991 (antibody, V domains shown)
# VH: EVQLVESGGNLVKPGGSLRLSCAASGFTFSGYYMSWIRQAPGKGLEWISDISGGSSYTNYADSVKGRFTISRDNAKNSLYLQMNSLRAEDTAMYYCARVEYDTTGPFHFDYWGQGTLVTVSS
# VL: QPVLTQPPSVSGAPGQRVTISCTGSSSNIGAGYDVHWYQQLPGTAPKLLIYGNNNRPSGVPDRLSGSKSGTSASLAITGLQAEDEADYYCQSYDSSLSGYVFGTGTKVTVL
# B3: ADI-21027 (antibody, V domains shown)
# VH: QVQLQESGPGLVKPSGTLSLTCVVSGGSIRSHNYWTWVRQPPGKGLEWIGEIYHSGNTNYNPSLKSRVTLSIDKSKNVFSLRLNSVTAADTAVYYCVGGGPFAPYYFENWGQGTLVTVSS
# VL: B2 VL with P2S, D34A, Q39H, G52D, L64F, T71S, S95R, V108L
# B4: ADI-21025 (antibody, V domains shown)
# VH: EVQLVESGGGLVRPGGSLRLSCEASGLKLSGYSMNWVRQAPGKGLEWVSSISASSSYIHYADSLKGRFTISRDNAKNSLYLQMNSLRAEDTAVYYCVASWLTPGWFDPWGQGTLVTVSS
# VL: B2 VL with R17T, N54T, L64F, I77V, A86G, Y100S, V101A, T104G, V108L
# B5: ADI-20971 (antibody, V domains shown)
# VH: EVQLVESGGGLVKPGESLRLSCAASGFTFSDYSMTWIRQAPGKGLLEWIAYINSQSNYMDYADSVKGRFTISRDNAKNSLYLQMNGLRADDTAVYFCARDRRTFVAATLGWFDPWGQGTLVTVSS
# VL: ETTLTQSPATLSVSPGERATLSCRASQSVSNNVAWYQQKPGQAPRVLIYAASTRATGIPARFSGSESGTEFTLTISSLQSEDFAVYYCQQYNNWPRTFGQGTKLEIK
# B6: ADI-20999 (antibody, V domains shown)
# VH: QVQLQESGPVLVKPSETLSLTCTVSGGSITSSAYYWGWIRQPPGKGLEWIGSVSYSGTTSYTPSLKSRVTISGDASKEQFSLNLRSVTAADTAVYYCARQTKAFGRRDYGMDVWGQGTTVTVSS
# VL: QPVLTQPPSVSAAPGQKVTISCSGSNSNIGSNFVSWYQQLPGTAPKLLIYENNKRPSGIPDRFSGSKSGPSATLGITGLQTEDEADYYCGTWDTGLSAHWVFGGGTKLTVL
# notes: also called Ab 250
# B7: ADI-21021 (antibody, V domains shown)
# VH: QVQLQQWGAGLLKPSETLSLTCAVHGGSFSGFYWSWIRQSPGKGLEWIAEINDSGNTNHNPSLKSRVTISIDTSKNQFSLNVSSVTAADTAVYYCAKNGGGHHYVGTLRFRSRAFDIWGQGTMVTVSS
# VL: EIVMTQSPSTLSASVGDRVTITCRASQSIGNRLAWYQQKPGKAPKLLISLASGLETGVPSRFSGSGSGTEFTLTITSLQPDDFATYYCQQYSSYGTFGQGTKLEIK
# notes: also called Ab 270
# B8: ADI-21017 (antibody, V domains shown)
# VH: QVQLVESGTEVKKPGASVKVSCKASGYTFTNYGITWVRQAPGQGLEWMGCISGYNGNTNYAQNLQGRVTMTTDTSTNTAYMELRSLISDDTAVYYCARDTGLTAAALLDYWGQGTLVTVSS
# VL: DIVLTQSPLSLPVTLGQPASISCRSSQSLVYSDGNTYLSWFQQRPGQSPRRLIYKVSNRDSGVPDRFGGSGSGTYFTLKISRVEAEDVGIYYCMQAIHWPLTFGGGTKVEIK
# B9: ADI-20982 (antibody, V domains shown)
# VH: EVQLVESGPGLVKPSQTLSLTCSVSGVSISRGSYYWSWIRQPAGGGLEWIGRIYTSGVTRYNPSLESRVTISLDSSQNQFFLRLSSVTAADTAVYYCATRESASYSSGPDAFDIWGQGTTVTVSS
# VL: DIQMTQSPSTLSASVGDRVIITCRASQSVNSWLAWYQQKPGKAPKLLIYQASSLESGVPSRFSGSGSGTEFTLTINSLQPDDFATYYCQQYKTFSRPFGQGTKVEIK
# B10: ADI-20983 (antibody, V domains shown)
# VH: EVQLVESGGALVQPGGSLRLSCSASGFTFSSYAMHWVRQAPGKGLEYVSAINNFGDKTYYTDSVEGRFTISRDNSKKTLYLQMSSLRPEDTAVYYCVKDRGYCSSPSCYAVPYYYFYGMDVWGQGTTVTVSS
# VL: EIVMTQSPSSLSASVGDRVTITCQASQGISNYLHWYQQKPGKAPKLLIYDASNLEAGVPSRFSGSGAGTDFTFTISSLQPEDVATYYCQHYNNLPFTFGPGTKVDIK
# B11: ADI-20973 (antibody, V domains shown)
# VH: EVQLLESGGGLVKPAGSLRLSCAASGFSFSSYYMNWIRQAPGKGLEWVSDISGGSSYTNYADSVKGRFTVSRDNAKNSVYLQMNSLRGEDTAVYYCARGASTAATYTPTFDYWGQGILVTVSS
# VL: QPVLTQPPSVSGAPGQRVTISCTGSSSNIGAGYDVHWYQQLPGTAPKLLMFGNNNRPSGVPDRFSGSKSGTSASLAITGLRPEDEADYYCQSYDRRLTVVFGGGTKLTVL
# B12: ADI-20974 (antibody, V domains shown)
# VH: EVQLVESGGGLVKPGGSLRLSCAASGFSFSSYQINWVRQAPGKGLEWVSSISGGSSYTDYADSIKGRFTISRDNAKKSAFLQMKSLRADDTAVYYCARALMATAGGLAFDIWGQGTMVTVSS
# VL: B11 VL with S26G, L41V, M50I, F51L, G52R, N54T, R81Q, P82A, R96S, T98S
# B13: ADI-21023 (antibody, V domains shown)
# VH: EVQLVESGGGLVKPGGSLRLSCAASGFRFSSYGMHWVRQAPGRGLEWVSSITAGSSYMDYADSVKGRFSISRDNAKTSLYLQMNSLRAEDTAIYYCARENYDTGRGLNWFDPWGQGTLVTVSS
# VL: QSVVTQPPSVSGAPGQRVTISCTGSSSNIGAGYDVHWYRQLPGTAPEVLIYGNNNRPSGVPDRFSGSKTGTSASLAITGLLAEDGADYYCQSYDRSQLWVFGGGTQLTVP
# B14: ADI-21030 (antibody, V domains shown)
# VH: EVQLVESGGGLVKPGGSLRLSCAASGFKFSTYYMSWIRQAPGKGLEWVSNISGGSSYSNHADSVKGRFTISRDNAKNSLYLEMNSLRAEDTAVYYCAREDLMGVSGLAYFEYWGQGILVTVSS
# VL: QPVLTQPPSVSGAPGQRVTISCTGRSSNIGAGYDVNWYKQLPGAVPKVLIYGNTNRPSGVPDRFSGSKSGNSASLAITGLQAEDEADYYCQSYDRNLGYVFGTGTKLTVL
# B15: ADI-20988 (antibody, V domains shown)
# VH: EVQLVESGGEVKKPGASVKVSCKTSGYPFSNYGISWMRLAPGQGLEWMGWISSYNGNTYYTKKFQGRVSMTTDTSTSTAYMELRSLRSDDTAVYYCARDVPVIAAHTFEYWGQGTLVTVSS
# VL: ETTLTQSPLSLPVTLGQPASISCRSSESLVYSDGNTYLSWFQQRPGQSPRRIIYKVSNRDSGVPDRFSGSGSGTDFTLKISRVEAEDVGVYYCMQATHWPRDTFGQGTKVDIK
# notes: also called Ab 240
# B16: ADI-21014 (antibody, V domains shown)
# VH: QVQLQESGPGLVKPSETLSLICTVSGGSISNYYWSWIRQPPGKGLEWIGYVWFGTTKYNPSLKNRVTISVDTGKNQVSLKVNSVTAADTAIYYCARDSSIWYRGAFEIWGQGTTVTVSS
# VL: DIRLTQSPSSLSASVGDRVTITCQASQDISNHLNWYQQRPGKAPELLIYDASTLETGGPSRFSGSGSGTDFTLTISSLQPEDFADYYCQQYDNLPVTFGGGTKVDIK
# B17: ADI-20992 (antibody, V domains shown)
# VH: EVQLVESGGGLVQPGGSLRLSCVVSGFTFKSYWMTWVRQAPGKGLEWVANIKEDGSEKYYVDSVKGRFTISRDNARNSLFLQMNSLRADDTAVYYCARNLEVSNEFYVVTDNYYLMDVWGQGTTVTVSS
# VL: DIQLTQSPSSLSASVGDRVTITCRASQSISFFLNWYRQKPGKAPKLLIYAASTLQSGVPSRFSGSGSGTDFTLTISSLQPEDFASYYCQQSYSTPHTFGQGTKVEIK
# B18: ADI-21029 (antibody, V domains shown)
# VH: QVQLVQSGAEVRKPGESLKISCKASGYSFTNYWIGWVRQMPGKGLEWMGIVYPADSHPVYSPSFQGQVTFSTDKSINTAYLQWSSLKASDTAMYFCARRDGGTDYLSDAFDIWGQGTMVTVSS
# VL: B17 VL with Q3V, L4M, A25T, S30R, F31R, F32Y, R37Q, T53S, S85T, H96N
# B19: ADI-20979 (antibody, V domains shown)
# VH: EVQLQESGPGLVKPSETLSLTCTVSGGSLRSYYWSWIRQPPGKGLEWIGNIYYGGSTNYNSSLKGRVTISIDTSKNQFSLRLSSVTAADTAVYYCARDGLFPMGEWDYWGQGILVTVSS
# VL: QSALTQPASVSGSPGQSITISCTGTSNDVGDYNYVSWYQQHPGEAPKLMIYEVTNRPSGVSDRFSGSKSGNTASLTISGLQAEDEADYYCSSYTSSTSVVFGGGTQLTVL
# notes: also called Ab 232
# Biological target: T1, RSV postfusion F (postF), subtype A (respiratory syncytial virus, subtype A, UniProt P03420 26-513)
# T1 construct: also called F ΔFP; Postfusion subtype A
# Assay: BLI, IgG
Binder,binding result,Kd
B1,no binding,–
B2,no binding,–
B3,no binding,–
B4,no binding,–
B5,no binding,–
B6,no binding,–
B7,no binding,–
B8,no binding,–
B9,no binding,–
B10,–,2.05 nM
B11,no binding,–
B12,no binding,–
B13,no binding,–
B14,no binding,–
B15,no binding,–
B16,no binding,–
B17,no binding,–
B18,no binding,–
B19,no binding,–

# Biological target: RSV prefusion F (preF), subtype B (respiratory syncytial virus, subtype B)
# Assay: BLI, IgG
row,Binder,Kd
1,B1,1.25 nM
2,B2,0.258 nM
3,B3,0.34 nM
4,B4,0.295 nM
5,B5,0.544 nM
6,B6,24.1 nM
7,B7,4.5 nM
8,B8,1.56 nM
9,B9,5.45 nM
10,B10,1.17 nM
11,B11,0.417 nM
12,B12,0.36 nM
13,B13,0.316 nM
14,B14,0.301 nM
15,B15,1.29 nM
16,B16,0.378 nM
17,B17,1.22 nM
18,B18,8.38 nM
19,B19,4 nM

# Biological target: RSV prefusion F (preF), subtype A (respiratory syncytial virus, subtype A, UniProt P03420 26-513)
# Assay: BLI, IgG
row,Binder,Kd
1,B1,0.414 nM
2,B2,0.234 nM
3,B3,0.296 nM
4,B4,0.242 nM
5,B5,0.333 nM
6,B6,4.16 nM
7,B7,2.55 nM
8,B8,0.305 nM
9,B9,4.88 nM
10,B10,0.213 nM
11,B11,0.308 nM
12,B12,0.291 nM
13,B13,0.264 nM
14,B14,0.257 nM
15,B15,0.294 nM
16,B16,0.408 nM
17,B17,0.956 nM
18,B18,3.77 nM
19,B19,0.979 nM
